The values below come from patent publication US20180105569A1 (INDIANA UNIVERSITY RESEARCH AND TECHNOLOGY, published 2018).

Changes are numbered by the printed parent chain. Numbered stars: 1 amine (or outer) side, 2 acyl side, 3 side chain; on linkers, the order of the positions; unused ones are H or OH. Square brackets hold non-standard residues; d marks the D form. Side chains are listed from the residue outwards. Ends that are not written are not given here. * marks the point of attachment. β2His = Beta2-His (beta2-homo amino acid form of His; γGlu = O=C(O)[C@H](CCC(=O)[*:2])N[*:1]; Desaminohistidyl = O=C(CCc1c[nH]cn1)*; Desaminotyrosyl = O=C(CCc1ccc(O)cc1)*; Palmitoyl = CCCCCCCCCCCCCCCC(=O)*; dthioAla = not defined here; thioAla = not defined here; Orn = NCCC[C@H](N)C(=O)O; Aib = CC(C)(N)C(=O)O; Sar = CNCC(=O)O

T1: GIP receptor (UniProt P48546 22-466, limits assumed)
T1 sequence (looked up): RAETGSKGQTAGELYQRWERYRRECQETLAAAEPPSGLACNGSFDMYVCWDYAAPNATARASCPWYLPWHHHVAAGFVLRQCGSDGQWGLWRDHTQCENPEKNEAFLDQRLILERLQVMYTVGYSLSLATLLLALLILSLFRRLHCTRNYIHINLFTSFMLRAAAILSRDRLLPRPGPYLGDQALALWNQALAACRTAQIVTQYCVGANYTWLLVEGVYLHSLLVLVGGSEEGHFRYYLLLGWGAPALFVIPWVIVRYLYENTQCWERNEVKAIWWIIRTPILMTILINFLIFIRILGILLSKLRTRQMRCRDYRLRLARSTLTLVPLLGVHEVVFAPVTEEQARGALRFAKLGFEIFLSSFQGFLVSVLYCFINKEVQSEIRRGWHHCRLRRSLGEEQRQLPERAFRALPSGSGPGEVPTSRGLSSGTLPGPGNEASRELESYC

B1: peptide of SEQ ID NO: 145 (peptide)
peptide: XAEGTFTSDKSKYLDERAAQDFVQWLLEGGPSSGAPPPS
modifications: position 1 Des-NH2-Tyr (desamino L-Tyr); position 2 Ala; C-terminal amide; other non-coded or acylated residues as in the sequence listing
B2: peptide of SEQ ID NO: 158 (peptide)
peptide: Ac-YA[dQ]GTFTSDK([γGlu-Palmitoyl])SKYLDERAAQDFVQWLLEGGPSSGAPPPS-NH2
B3: peptide of SEQ ID NO: 155 (peptide)
peptide: Ac-YAQGTFTSDK([γGlu-Palmitoyl])SKYLDERAAQDFVQWLLEGGPSSGAPPPS-NH2
B4: peptide of SEQ ID NO: 21 (peptide)
peptide: Ac-[thioAla]AQGTFTSDK([γGlu-Palmitoyl])SKYLDERAAQDFVQWLLEGGPSSGAPPPS-NH2
modifications: reading uncertain
B5: peptide of SEQ ID NO: 28 (peptide)
peptide: H[Sar]QGTFTSDK([γGlu-Palmitoyl])SKYLDERAAQDFVQWLLEGGPSSGAPPPS-NH2
B6: peptide of SEQ ID NO: 17 (peptide)
peptide: Ac-[dthioAla]AQGTFTSDK([γGlu-Palmitoyl])SKYLDERAAQDFVQWLLEGGPSSGAPPPS-NH2
modifications: reading uncertain
B7: peptide of SEQ ID NO: 34 (peptide)
peptide: Ac-QGQGTFTSDK([γGlu-Palmitoyl])SKYLDERAAQDFVQWLLEGGPSSGAPPPS-NH2
B8: peptide of SEQ ID NO: 30 (peptide)
peptide: Ac-[Orn]AQGTFTSDK([γGlu-Palmitoyl])SKYLDERAAQDFVQWLLEGGPSSGAPPPS-NH2
B9: peptide of SEQ ID NO: 31 (peptide)
peptide: [Desaminohistidyl]GQGTFTSDK([γGlu-Palmitoyl])SKYLDERAAQDFVQWLLEGGPSSGAPPPS-NH2
B10: peptide of SEQ ID NO: 22 (peptide)
peptide: [Desaminohistidyl]AQGTFTSDK([γGlu-Palmitoyl])SKYLDERAAQDFVQWLLEGGPSSGAPPPS-NH2
B11: peptide of SEQ ID NO: 37 (peptide)
peptide: H[Aib]QGTFTSDK([γGlu-Palmitoyl])SKYLDERAAQDFVQWLLEGGPSSGAPPPS-NH2
B12: peptide of SEQ ID NO: 26 (peptide)
peptide: B1 peptide with E3Q
modifications: position 1 His; position 2 β-Ala; C-terminal amide; other non-coded or acylated residues as in the sequence listing
B13: peptide of SEQ ID NO: 12 (peptide)
peptide: Ac-[dY]AQGTFTSDK([γGlu-Palmitoyl])SKYLDERAAQDFVQWLLEGGPSSGAPPPS-NH2
B14: peptide of SEQ ID NO: 33 (peptide)
peptide: [thioAla]PQGTFTSDK([γGlu-Palmitoyl])SKYLDERAAQDFVQWLLEGGPSSGAPPPS-NH2
modifications: reading uncertain
B15: peptide of SEQ ID NO: 15 (peptide)
peptide: [dY]AQGTFTSDK([γGlu-Palmitoyl])SKYLDERAAQDFVQWLLEGGPSSGAPPPS-NH2
B16: peptide of SEQ ID NO: 29 (peptide)
peptide: [thioAla]GQGTFTSDK([γGlu-Palmitoyl])SKYLDERAAQDFVQWLLEGGPSSGAPPPS-NH2
modifications: reading uncertain
B17: peptide of SEQ ID NO: 23 (peptide)
peptide: [dH]GQGTFTSDK([γGlu-Palmitoyl])SKYLDERAAQDFVQWLLEGGPSSGAPPPS-NH2
B18: peptide of SEQ ID NO: 27 (peptide)
peptide: [dH]PQGTFTSDK([γGlu-Palmitoyl])SKYLDERAAQDFVQWLLEGGPSSGAPPPS-NH2
B19: peptide of SEQ ID NO: 14 (peptide)
peptide: Ac-[dY]GQGTFTSDK([γGlu-Palmitoyl])SKYLDERAAQDFVQWLLEGGPSSGAPPPS-NH2
B20: peptide of SEQ ID NO: 10 (peptide)
peptide: H[Aib]QGTFTSDK([γGlu-Palmitoyl])SKYLDERAAQDFVQWLLDGGPSSGAPPPS-NH2
B21: peptide of SEQ ID NO: 11 (peptide)
peptide: [Desaminotyrosyl]AQGTFTSDK([γGlu-Palmitoyl])SKYLDERAAQDFVQWLLEGGPSSGAPPPS-NH2
B22: peptide of SEQ ID NO: 13 (peptide)
peptide: Ac-[dH]AQGTFTSDK([γGlu-Palmitoyl])SKYLDERAAQDFVQWLLEGGPSSGAPPPS-NH2
B23: peptide of SEQ ID NO: 25 (peptide)
peptide: [β2His]AQGTFTSDK([γGlu-Palmitoyl])SKYLDERAAQDFVQWLLEGGPSSGAPPPS-NH2
B24: peptide of SEQ ID NO: 16 (peptide)
peptide: [dH]AQGTFTSDK([γGlu-Palmitoyl])SKYLDERAAQDFVQWLLEGGPSSGAPPPS-NH2

One test deals with T1, GIP receptor. In words: cell-based or functional assay.
Take B1: the midpoint of the response, the EC50 at GIP Receptor (cAMP luciferase reporter, HEK293), lay at 0.003 nM.
The same measure, in the same setting: with B2 the figure was 0.069 nM.
Regarding B3, the concentration giving a half-maximal response (EC50) at GIP Receptor (cAMP luciferase reporter, HEK293) stood at 0.037 nM. This EC50 at GIP Receptor (cAMP luciferase reporter, HEK293) is about 1.9-fold lower than that of the molecule before.

The target of another test is T2, glucagon receptor (UniProt P47871 26-477, limits assumed). Description: cell-based or functional assay.
T2 sequence (P47871 26-477 limits assumed): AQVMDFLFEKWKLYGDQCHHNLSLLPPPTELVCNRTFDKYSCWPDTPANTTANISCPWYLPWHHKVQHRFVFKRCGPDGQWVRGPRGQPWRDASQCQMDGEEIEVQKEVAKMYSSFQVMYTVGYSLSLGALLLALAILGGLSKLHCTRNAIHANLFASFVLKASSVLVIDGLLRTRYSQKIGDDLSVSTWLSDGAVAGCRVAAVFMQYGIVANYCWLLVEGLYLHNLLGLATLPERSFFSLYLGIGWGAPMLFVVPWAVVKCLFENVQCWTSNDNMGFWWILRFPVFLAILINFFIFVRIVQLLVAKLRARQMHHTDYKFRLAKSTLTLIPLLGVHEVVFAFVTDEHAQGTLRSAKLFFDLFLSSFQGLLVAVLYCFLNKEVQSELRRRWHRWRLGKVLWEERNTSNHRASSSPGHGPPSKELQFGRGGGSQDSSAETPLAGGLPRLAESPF
As for B1, the midpoint of the response, the EC50 at Glucagon Receptor (cAMP luciferase reporter, HEK293), lay at 3.73 nM. In other words, the single-digit nanomolar range.

The next test has as its target T1, GIP receptor. In words: cell-based or functional assay. This is another data set of the same source.
For the molecule B4, the 50% effective concentration (EC50) at GIP Receptor (cAMP luciferase reporter, HEK293) came out at 0.04 nM.
Same read-out and setting: the result for B5 reads 0.081 nM.
B6: a half-maximal response (EC50 at GIP Receptor (cAMP luciferase reporter, HEK293)) required 0.011 nM.
As to B7, the “EC50 at GIP Receptor (cAMP luciferase reporter, HEK293)” value (shortened to “EC50 at GIP Receptor”) was 0.436 nM.
In the case of B8, a half-maximal effect (EC50 at GIP Receptor (cAMP luciferase reporter, HEK293)) was put at 0.183 nM.
In the case of B9, the response was half-maximal at 0.226 nM (EC50 at GIP Receptor (cAMP luciferase reporter, HEK293)).
The same measure, in the same setting: the result for B10 reads 0.041 nM.
Regarding B11, the concentration for a half-maximal effect (EC50) at GIP Receptor (cAMP luciferase reporter, HEK293) is 0.003 nM.
For the molecule B12, the half-maximal effective concentration (EC50) at GIP Receptor (cAMP luciferase reporter, HEK293) is 0.071 nM.
On the same count and under the same terms, the result for B13 reads 0.002 nM; that for B14, 0.43 nM; that for B15, 0.008 nM.
In the case of B16, the “EC50 at GIP Receptor” value was 0.095 nM.
As to B17, the “EC50 at GIP Receptor” value was found to be 0.043 nM.
The same measure, in the same setting: the result for B18 reads 0.08 nM; that for B19, 0.005 nM; that for B20, 0.003 nM.
With B21, the 50% effective concentration (EC50) at GIP Receptor (cAMP luciferase reporter, HEK293) was 0.002 nM. This EC50 at GIP Receptor (cAMP luciferase reporter, HEK293) lies about 1.5-fold lower than the previous one.
On to B22, for which a half-maximal response (EC50 at GIP Receptor (cAMP luciferase reporter, HEK293)) required 0.004 nM.
The same measure, in the same setting: with B23 the figure was 0.064 nM.
Same read-out and setting: with B24 the figure was 0.01 nM.

Another test has as its target T2, glucagon receptor. Description: cell-based or functional assay. The source holds these as a separate data set.
Turning to B4, the midpoint of the response, the EC50 at Glucagon Receptor (cAMP luciferase reporter, HEK293), lay at 0.006 nM.
As for B5, the “EC50 at Glucagon Receptor (cAMP luciferase reporter, HEK293)” value (“EC50 at Glucagon Receptor” below) stood at 0.022 nM.
Still for that read-out and setting: the result for B6 reads 0.008 nM.
Consider B7, for which it took 0.163 nM to reach a half-maximal effect (EC50 at Glucagon Receptor (cAMP luciferase reporter, HEK293)).
Still for that read-out and setting: the result for B8 reads 0.635 nM.
Same read-out and setting: the result for B9 reads 0.022 nM; that for B10, 0.017 nM; that for B11, 0.009 nM.
With B12, the “EC50 at Glucagon Receptor” value is 0.095 nM.
As for B13, the response was half-maximal at 0.007 nM (EC50 at Glucagon Receptor (cAMP luciferase reporter, HEK293)).
Same read-out and setting: the result for B14 reads 0.121 nM.
For the molecule B15, the concentration giving a half-maximal response (EC50) at Glucagon Receptor (cAMP luciferase reporter, HEK293) is 0.05 nM.
Same read-out and setting: the result for B16 reads 0.038 nM; that for B17, 0.015 nM.
In the case of B18, a half-maximal response (EC50 at Glucagon Receptor (cAMP luciferase reporter, HEK293)) required 0.034 nM. This EC50 at Glucagon Receptor (cAMP luciferase reporter, HEK293) lies about 2.3-fold higher than the previous one.
As for B19, the half-maximal effective concentration (EC50) at Glucagon Receptor (cAMP luciferase reporter, HEK293) is 0.005 nM. This EC50 at Glucagon Receptor (cAMP luciferase reporter, HEK293) lies about 6.8-fold lower than the previous one.
As to B20, the “EC50 at Glucagon Receptor” value is 0.005 nM.
The same measure, in the same setting: with B21 the figure was 0.016 nM.
Still for that read-out and setting: the result for B22 reads 0.002 nM; that for B23, 0.024 nM.
In the case of B24, the concentration for a half-maximal effect (EC50) at Glucagon Receptor (cAMP luciferase reporter, HEK293) was 0.01 nM.

In another test the target is GLP-1 receptor (UniProt P43220 24-463, limits assumed). Description: cell-based or functional assay.
Take B4: a half-maximal effect (EC50 at GLP-1 Receptor (cAMP luciferase reporter, HEK293)) was put at 0.026 nM.
The same measure, in the same setting: the result for B5 reads 0.002 nM; that for B6, 0.005 nM.
On the same count and under the same terms, with B7 the figure was 0.611 nM; with B8, 0.002 nM.
On the same count and under the same terms, with B9 the figure was 0.003 nM; with B10, 0.003 nM.
For the molecule B11, the response was half-maximal at 0.006 nM (EC50 at GLP-1 Receptor (cAMP luciferase reporter, HEK293)).
On the same count and under the same terms, with B12 the figure was 0.002 nM.
As for B13, a half-maximal effect (EC50 at GLP-1 Receptor (cAMP luciferase reporter, HEK293)) was put at 0.003 nM.
For B14, a half-maximal effect (EC50 at GLP-1 Receptor (cAMP luciferase reporter, HEK293)) was put at 0.005 nM.
For the molecule B15, it took 0.004 nM to reach a half-maximal effect (EC50 at GLP-1 Receptor (cAMP luciferase reporter, HEK293)).
On the same count and under the same terms, the result for B16 reads 0.007 nM.
Turning to B17, a half-maximal response (EC50 at GLP-1 Receptor (cAMP luciferase reporter, HEK293)) required 0.003 nM.
On the same count and under the same terms, the result for B18 reads 0.003 nM; that for B19, 0.022 nM; that for B20, 0.005 nM.
Same read-out and setting: the result for B21 reads 0.002 nM; that for B22, 0.004 nM.
Same read-out and setting: the result for B23 reads 0.003 nM; that for B24, 0.002 nM.
